Measured values from patent publication US20190352359A1 (IMMATICS BIOTECHNOLOGIES, published 2019).

Tests used:
[1] = biological target: T1, HLA-A*24; assay: UV peptide-exchange ELISA (anti-b2m); yield grade ++ = >20%
T1 construct: Monomers captured on streptavidin plates; also called peptide-receptive MHC molecules; MHC complexes
Description: (§1) Candidate peptides for T cell based therapies according to the present invention were further tested for their MHC binding capacity (affinity). The individual peptide-MHC complexes were produced by UV-ligand exchange, where a UV-sensitive peptide is cleaved upon UV-irradiation, and exchanged with the peptide of interest as analyzed. Only peptide candidates that can effectively bind and stabilize the peptide-receptive MHC molecules prevent dissociation of the MHC complexes. To determine the yield of the exchange reaction, an ELISA was performed based on the detection of the light chain (p2m) of stabilized MHC complexes. The assay was performed as generally described in Rodenko et al. (Rodenko et al., 2006)
(§2) 96 well MAXISorp plates (NUNC) were coated over night with 2 ug/ml streptavidin in PBS at room temperature, washed 4× and blocked for 1 h at 37° C. in 2% BSA containing blocking buffer. Refolded HLA-A*02:01/MLA-001 monomers served as standards, covering the range of 15-500 ng/ml. Peptide-MHC monomers of the UV-exchange reaction were diluted 100-fold in blocking buffer. Samples were incubated for 1 h at 37° C., washed four times, incubated with 2 ug/ml HRP conjugated anti-β2m for 1h at 37° C., washed again and detected with TMB solution that is stopped with […]. Absorption was measured at 450 nm. Candidate peptides that show a high exchange yield (preferably higher than 50%, most preferred higher than 75%) are generally preferred for a generation and production of antibodies or fragments thereof, and/or T cell receptors or fragments thereof, as they show sufficient avidity to the MHC molecules and prevent dissociation of the MHC complexes.

[2] = biological target: T1, HLA-A*24; assay: UV peptide-exchange ELISA (anti-b2m); yield grade +++ = >50
Description: as §1, §2

Q: For RAMCAMMSF (also called RAMCAMMSF) [TGM4-002], which peptide exchange yield [1] is on record?
A: 20 to 50%

Q: Which peptide exchange yield [1] does the source give for YAYATVLTF (also called YAYATVLTF) [ABCC4-002] here?
A: 20 to 50%

Q: With TQMDVKLVF (also called TQMDVKLVF) [GEN-003] as the binder, how does the peptide exchange yield [1] read?
A: 20 to 50%

Q: For TDLVQFLLF (also called TDLVQFLLF) [MAGEA10-003], which peptide exchange yield [1] is on record?
A: 20 to 50%

Q: TQLPAPLRI (also called TQLPAPLRI) [GPR45-001] was tested. Which peptide exchange yield [1] did it give?
A: 20 to 50%

Q: YQRPDLLLF (also called YQRPDLLLF) [GEN-004] was tested. Which peptide exchange yield [1] did it give?
A: 20 to 50%

Q: KYYIATMAL (also called KYYIATMAL) [CHRNA9-003] was tested. Which peptide exchange yield [2] did it give?
A: 50 to 75%

Q: With ASAALTGFTF (also called ASAALTGFTF) [SLC45A3-003] as the binder, how does the peptide exchange yield [1] read?
A: 20 to 50%

Q: For MMVTVVALF (also called MMVTVVALF) [QRFPR-003], which peptide exchange yield [2] is on record?
A: 50 to 75%

Q: For SHIGVVLAF (also called SHIGVVLAF) [OR51E2-005], which peptide exchange yield [1] is on record?
A: 20 to 50%

Q: With MHPGVLAAFLF (also called MHPGVLAAFLF) [MMP13-005] as the binder, how does the peptide exchange yield [2] read?
A: 50 to 75%

Q: How did the peptide exchange yield [1] turn out when THSGGTNLF (also called THSGGTNLF) [MMP12-019] was run?
A: 20 to 50%

Q: YSLEHLTQF (also called YSLEHLTQF) [ZCCHC16-001] was tested. Which peptide exchange yield [1] did it give?
A: 20 to 50%

Q: Which peptide exchange yield [2] does the source give for RSMEHPGKLLF (also called RSMEHPGKLLF) [ESR1-010] here?
A: 50 to 75%

Q: How did the peptide exchange yield [1] turn out when WFFQGAQYW (also called WFFQGAQYW) [MMP11-024] was run?
A: 20 to 50%

Q: With KTYLPTFETTI (also called KTYLPTFETTI) [ENP-002] as the binder, how does the peptide exchange yield [1] read?
A: 20 to 50%

Q: RALTETIMF (also called RALTETIMF) [ALP-011] was tested. Which peptide exchange yield [1] did it give?
A: 20 to 50%

Q: How did the peptide exchange yield [1] turn out when YGQSKPWTF (also called YGQSKPWTF) [PAX3-001] was run?
A: 20 to 50%

Q: With YSLLDPAQF (also called YSLLDPAQF) [SOX14-002] as the binder, how does the peptide exchange yield [2] read?
A: 50 to 75%

Q: LKSPRLFTF (also called LKSPRLFTF) [BTBD16-001] was tested. Which peptide exchange yield [1] did it give?
A: 20 to 50%

Q: For VLASAHILQF (also called VLASAHILQF) [BTBD16-005], which peptide exchange yield [1] is on record?
A: 20 to 50%

Q: How did the peptide exchange yield [1] turn out when VTMYLPLLL (also called VTMYLPLLL) [GPR143-001] was run?
A: 20 to 50%

Q: THAGVRLYF (also called THAGVRLYF) [NUP155-012] was tested. Which peptide exchange yield [1] did it give?
A: 20 to 50%

Q: For KYMSRVLFVY (also called KYMSRVLFVY) [CHRNA9-002], which peptide exchange yield [1] is on record?
A: 20 to 50%

Q: FIPVAWLIF (also called FIPVAWLIF) [MRGPRX4-001] was tested. Which peptide exchange yield [2] did it give?
A: 50 to 75%

Q: How did the peptide exchange yield [2] turn out when KYKQHFPEI (also called KYKQHFPEI) [MAGEB17-001] was run?
A: 50 to 75%

Q: With NYFLDPVTI (also called NYFLDPVTI) [TRI-005] as the binder, how does the peptide exchange yield [2] read?
A: 50 to 75%

Q: For FRSWAVQTF (also called FRSWAVQTF) [NOS2-002], which peptide exchange yield [1] is on record?
A: 20 to 50%

Q: For QYAAAITNGL (also called QYAAAITNGL) [SALL3-002], which peptide exchange yield [2] is on record?
A: 50 to 75%

Q: MGKGSISFLF (also called MGKGSISFLF) [PCSK1-001] was tested. Which peptide exchange yield [1] did it give?
A: 20 to 50%

Q: For YYIGIVEEY (also called YYIGIVEEY) [HEPHL-007], which peptide exchange yield [2] is on record?
A: 50 to 75%

Q: How did the peptide exchange yield [1] turn out when AAFPGAFSF (also called AAFPGAFSF) [CRB2-002] was run?
A: 20 to 50%

Q: With TIYSLEMKMSF (also called TIYSLEMKMSF) [GLB1L3-001] as the binder, how does the peptide exchange yield [1] read?
A: 20 to 50%

Q: How did the peptide exchange yield [1] turn out when YLGKNWSF (also called YLGKNWSF) [SPNS3-006] was run?
A: 20 to 50%

Q: How did the peptide exchange yield [1] turn out when AQHSLTQLF (also called AQHSLTQLF) [GPC2-002] was run?
A: 20 to 50%

Q: Which peptide exchange yield [2] does the source give for LFDHGGTVFF (also called LFDHGGTVFF) [ANO7-003] here?
A: 50 to 75%

Q: Which peptide exchange yield [1] does the source give for EFINGWYVL (also called EFINGWYVL) [MCOLN2-002] here?
A: 20 to 50%

Q: Which peptide exchange yield [1] does the source give for FSSTLVSLF (also called FSSTLVSLF) [MAGEC1-003] here?
A: 20 to 50%

Q: MYNMVPFF (also called MYNMVPFF) [DCT-002] was tested. Which peptide exchange yield [2] did it give?
A: 50 to 75%

Q: For YLCMLYALF (also called YLCMLYALF) [KCNK18-001], which peptide exchange yield [1] is on record?
A: 20 to 50%

Q: How did the peptide exchange yield [1] turn out when LYQQSDTWSL (also called LYQQSDTWSL) [KIAA140-001] was run?
A: 20 to 50%

Q: With KMFPKDFRF (also called KMFPKDFRF) [TTLL6-001] as the binder, how does the peptide exchange yield [1] read?
A: 20 to 50%

Q: With KQPANFIVL (also called KQPANFIVL) [LOC1001246-001] as the binder, how does the peptide exchange yield [1] read?
A: 20 to 50%

Q: Which peptide exchange yield [1] does the source give for ASYQQSTSSFF (also called ASYQQSTSSFF) [FAM82A1-001] here?
A: 20 to 50%

Q: Which peptide exchange yield [1] does the source give for YTRLVLQF (also called YTRLVLQF) [GABRP-008] here?
A: 20 to 50%

Q: For INGDLVFSF (also called INGDLVFSF) [CAPN6-002], which peptide exchange yield [1] is on record?
A: 20 to 50%

Q: Which peptide exchange yield [2] does the source give for KTKRWLWDF (also called KTKRWLWDF) [COL11A1-004] here?
A: 50 to 75%

Q: Which peptide exchange yield [1] does the source give for TYESVVTGFF (also called TYESVVTGFF) [HAS3-004] here?
A: 20 to 50%

Q: For IWDALERTF (also called IWDALERTF) [ABCC11-005], which peptide exchange yield [1] is on record?
A: 20 to 50%

Q: For FSFSTSMNEF (also called FSFSTSMNEF) [CAPN6-001], which peptide exchange yield [1] is on record?
A: 20 to 50%

Q: RQAYSVYAF (also called RQAYSVYAF) [SLC45A3-005] was tested. Which peptide exchange yield [1] did it give?
A: 20 to 50%

Q: With RTLNEIYHW (also called RTLNEIYHW) [FOXP3-001] as the binder, how does the peptide exchange yield [1] read?
A: 20 to 50%

Q: For SYLKDPMIV (also called SYLKDPMIV) [DDX53-001], which peptide exchange yield [2] is on record?
A: 50 to 75%

Q: With EMFFSPQVF (also called EMFFSPQVF) [ACTL8-002] as the binder, how does the peptide exchange yield [1] read?
A: 20 to 50%

Q: For LFALPDFIF (also called LFALPDFIF) [CXCR3-002], which peptide exchange yield [1] is on record?
A: 20 to 50%

Q: How did the peptide exchange yield [1] turn out when AVLRHLETF (also called AVLRHLETF) [CDK6-006] was run?
A: 20 to 50%

Q: For GYGLTRVQPF (also called GYGLTRVQPF) [ACTL8-003], which peptide exchange yield [1] is on record?
A: 20 to 50%

Q: With KALMSAFYTF (also called KALMSAFYTF) [MMP11-022] as the binder, how does the peptide exchange yield [2] read?
A: 50 to 75%

Q: With SQHFNLATF (also called SQHFNLATF) [DNMT3B-003] as the binder, how does the peptide exchange yield [1] read?
A: 20 to 50%

Q: For YQGSLEVLF (also called YQGSLEVLF) [MROH2A-006], which peptide exchange yield [1] is on record?
A: 20 to 50%

Q: How did the peptide exchange yield [2] turn out when GYFLAQYLM (also called GYFLAQYLM) [TRPM8-008] was run?
A: 50 to 75%

Q: KVFGSFLTL (also called KVFGSFLTL) [AGTR2-001] was tested. Which peptide exchange yield [1] did it give?
A: 20 to 50%

Q: How did the peptide exchange yield [1] turn out when QFSHVPLNNF (also called QFSHVPLNNF) [ALX1-001] was run?
A: 20 to 50%

Q: How did the peptide exchange yield [1] turn out when RSWENIPVTF (also called RSWENIPVTF) [C18orf54-001] was run?
A: 20 to 50%

Q: How did the peptide exchange yield [1] turn out when RALLPSPLF (also called RALLPSPLF) [SPATA31D1-001] was run?
A: 20 to 50%

Q: With TQIITFESF (also called TQIITFESF) [CSF2-001] as the binder, how does the peptide exchange yield [1] read?
A: 20 to 50%
